# System: GST-p21
substance,measurement,value
GFP-tagged kinase dead (K67M) mutant of PIM-1 (GFP-PIM-DN),"in vitro kinase assay: 32P-labeling of GST-p21, SDS-PAGE and autoradiography",this activity was abolished in the Pim-DN construct
GFP-tagged wild-type 34 kDa human PIM-1 (GFP-PIM-wt),"in vitro kinase assay: 32P-labeling of GST-p21, SDS-PAGE and autoradiography",Pim-wt overexpression phosphorylates p21

# From patent US20160324936
